In PMC10713628, “UniKP: a unified framework for the prediction of enzyme kinetic parameters” (Nature Communications, 2023):

What was measured:
[1] = tested on: T1, N[C@@H](Cc1ccc(O)cc1)C(=O)O; experiment: purified protein; type: biochemical, Rhodotorula glutinis; conditions: Tris-HCl, 40 °C, 30 min, pH 9.5 in table note (buffer pH 8.5 in methods)
T1 construct: full length 693 residues; pET32a, E. coli BL21(DE3); purified; tags not described

[2] = tested on: N[C@@H](Cc1ccc(O)cc1)C(=O)O; experiment: purified protein; conditions: Tris-HCl, 40 °C, 30 min, pH 9.5 in table note (buffer pH 8.5 in methods)
[3] = tested on: T2, TrTAL; experiment: coumaric acid formation at […] nm; type: biochemical, Tephrocybe rancida; conditions: Tris-HCl, 40 °C, 30 min; pH 9.5 in table note (buffer pH 8.5 in methods)
T2 construct: gene TAL; codon-optimised synthetic gene in pET32a, E. coli BL21(DE3); purified; tags not described

[4] = tested on: T3, PpTAL; experiment: coumaric acid formation at […] nm; type: biochemical, Pleurotus pulmonarius; conditions: Tris-HCl, 40 °C, 30 min; pH 9.5 in table note (buffer pH 8.5 in methods)
T3 construct: gene TAL; codon-optimised synthetic gene in pET32a, E. coli BL21(DE3); purified; tags not described

[5] = tested on: T4, TALclu; experiment: coumaric acid formation at […] nm; type: biochemical, Chryseobacterium luteum; conditions: Tris-HCl, 40 °C, 30 min; pH 9.5 in table note (buffer pH 8.5 in methods)
T4 construct: gene TAL; codon-optimised synthetic gene in pET32a, E. coli BL21(DE3) per general method; purified; tags not described

[6] = tested on: T5, LeTAL; experiment: coumaric acid formation at […] nm; type: biochemical, Lentinula edodes; conditions: Tris-HCl, 40 °C, 30 min; pH 9.5 in table note (buffer pH 8.5 in methods)
T5 construct: gene TAL; codon-optimised synthetic gene in pET32a, E. coli BL21(DE3); purified; tags not described

[7] = substrate: N[C@@H](Cc1ccc(O)cc1)C(=O)O; experiment: purified protein; type: biochemical, Rhodotorula glutinis; conditions: Tris-HCl, 40 °C, 30 min, pH 9.5 in table note (buffer pH 8.5 in methods)
[8] = substrate: N[C@@H](Cc1ccc(O)cc1)C(=O)O; experiment: purified protein; type: biochemical, Armillaria solidipes; conditions: Tris-HCl, 40 °C, 30 min, pH 9.5 in table note (buffer pH 8.5 in methods)

## RgTAL (Rhodotorula glutinis; E587V)
[1]
  Km: 330 µM
  kcat: 163 s⁻¹
  kcat/Km: 494000 M⁻¹ s⁻¹

## RgTAL (Rhodotorula glutinis; Q337D)
[1]
  Km: 850 µM
  kcat: 34.8 s⁻¹
  kcat/Km: 40900 M⁻¹ s⁻¹

## PcTAL (Puccinia coronata f. sp. avenae)
[2]
  Km: 170 µM
  kcat: 66.6 s⁻¹
  kcat/Km: 392000 M⁻¹ s⁻¹

## RgTAL (Rhodotorula glutinis; I668S)
[1]
  Km: 3850 µM
  kcat: 53.6 s⁻¹
  kcat/Km: 13900 M⁻¹ s⁻¹

## AaTAL (Aspergillus arachidicola)
[2]
  Km: 30 µM
  kcat: 25.2 s⁻¹
  kcat/Km: 841000 M⁻¹ s⁻¹

## RgTAL (Rhodotorula glutinis; Q10Y)
[1]
  Km: 820 µM
  kcat: 884 s⁻¹
  kcat/Km: 1.08e+06 M⁻¹ s⁻¹

## RgTAL (Rhodotorula glutinis; K603P)
[1]
  Km: 1150 µM
  kcat: 52.6 s⁻¹
  kcat/Km: 45700 M⁻¹ s⁻¹

## IsTAL (Ilyonectria sp. MPI-CAGE-AT-0026)
[2]
  Km: 570 µM
  kcat: 120 s⁻¹
  kcat/Km: 210000 M⁻¹ s⁻¹

## N[C@@H](Cc1ccc(O)cc1)C(=O)O [L-tyrosine]
[3]
  Km: 40 µM
[4]
  Km: 40 µM
[5]
  Km: 50 µM
[6]
  Km: 70 µM

## RgTAL (Rhodotorula glutinis; E366W)
[1]
  Km: 850 µM
  kcat: 31 s⁻¹
  kcat/Km: 36500 M⁻¹ s⁻¹

## RgTAL (Rhodotorula glutinis; E366H)
[1]
  Km: 480 µM
  kcat: 40.3 s⁻¹
  kcat/Km: 84000 M⁻¹ s⁻¹

## RgTAL (Rhodotorula glutinis; Q337C)
[1]
  Km: 6480 µM
  kcat: 96.8 s⁻¹
  kcat/Km: 14900 M⁻¹ s⁻¹

## RgTAL (Rhodotorula glutinis; R489T)
[1]
  Km: 710 µM
  kcat: 817 s⁻¹
  kcat/Km: 1.15e+06 M⁻¹ s⁻¹

B1: RgTAL (Rhodotorula glutinis) (protein)
chain: MAPRPTSQSQARTCPTTQVTQVDIVEKMLAAPTDSTLELDGYSLNLGDVVSAARKGRPVRVKDSDEIRSKIDKSVEFLRSQLSMSVYGVTTGFGGSADTRTEDAISLQKALLEHQLCGVLPSSFDSFRLGRGLENSLPLEVVRGAMTIRVNSLTRGHSAVRLVVLEALTNFLNHGITPIVPLRGTISASGDLSPLSYIAAAISGHPDSKVHVVHEGKEKILYAREAMALFNLEPVVLGPKEGLGLVNGTAVSASMATLALHDAHMLSLLSQSLTAMTVEAMVGHAGSFHPFLHDVTRPHPTQIEVAGNIRKLLEGSRFAVHHEEEVKVKDDEGILRQDRYPLRTSPQWLGPLVSDLIHAHAVLTIEAGQSTTDNPLIDVENKTSHHGGNFQAAAVANTMEKTRLGLAQIGKLNFTQLTEMLNAGMNRGLPSCLAAEDPSLSYHCKGLDIAAAAYTSELGHLANPVTTHVQPAEMANQAVNSLALISARRTTESNDVLSLLLATHLYCVLQAIDLRAIEFEFKKQFGPAIVSLIDQHFGSAMTGSNLRDELVEKVNKTLAKRLEQTNSYDLVPRWHDAFSFAAGTVVEVLSSTSLSLAAVNAWKVAAAESAISLTRQVRETFWSAASTSSPALSYLSPRTQILYAFVREELGVKARRGDVFLGKQEVTIGSNVSKIYEAIKSGRINNVLLKMLA
notes: full length 693 residues; pET32a, E. coli BL21(DE3); purified; tags not described
[7]
  Km: 360 µM
  kcat: 118 s⁻¹
  kcat/Km: 327000 M⁻¹ s⁻¹

B2: AsTAL (Armillaria solidipes) (protein)
chain: MPASVFDDINSETKSGKGVGGVSGAHRTPSLLAKFLDSHKELKSYRNGRPVKVDGHTLSIAAVTAAARYNATVDLDGSPQVKAGVMKSRAVIADKVDNGTSVYGVSTGFGGSADTRTDQPLKLGQALLQHQHAGVLPSSDRTLDVLPLLDPMASTSMPESWVRGAMLVRMNSLIRGHSGVRWELLEKINELLRANITPVVPLRSSISASGDLSPLSYVAGTLVANPSIRVFDGPKKFGARKMVSSKDALASHGIQPISLVSKEGLGILNGTAFSASVASLALNDAVHLALLAQICTALGTEALSGTLGNYAPFIHATARPHPGQVESARHIWNLLRGSKLATTHEEEVSINQDKYSLRQDRYPLRTAPQFLGPQIEDILSALSTVIQECNSTTDNPLIDGETGEVHHGGNFQAMAVSNAMEKTRLALHHIGRLLFAQSTELVNPVMNHGLPPSLAASDPSLNYHGKGVDIATAAYVAELGYLAGPVTTHIQSAEMHNQAVNSLALISARATVNALEVLTMLMSSYLYLLCQAVDLRALRREFNTGLKSILSEELSAILGSQLSSQEIDISVSSMWGVVQTTLDKTTTMDAVDQMREVATACIPALIETVSRTNAINNALSSISQFRTNVASKATKLMAELRSSYLLGGRGPAPAGPYLGKTRAVYEYIRITLGVKMHGIENLGSFPNGLGVDDVTIGQNITAIFEAIRDGNFQDAVADLFEVLPHVKL
notes: codon-optimised synthetic gene in pET32a, E. coli BL21(DE3); purified; tags not described
[8]
  Km: 540 µM
  kcat: 449 s⁻¹
  kcat/Km: 831000 M⁻¹ s⁻¹
